# B1: FLAG-tagged full-length PVR (receptor)
# chain: WPPPGTGDVVVQAPTQVPGFLGDSVTLPCYLQVPNMEVTHVSQLTWARHGESGSMAVFHQTQGPSYSESKRLEFVAARLGAELRNASLRMFGLRVEDEGNYTCLFVTFPQGSRSVDIWLRVLAKPQNTAEVQKVQLTGEPVPMARCVSTGGRPPAQITWHSDLGGMPNTSQVPGFLSGTVTVTSLWILVPSSQVDGKNVTCKVEHESFEKPQLLTVNLTVYYPPEVSISGYDNNWYLGQNEATLTCDARSNPEPTGYNWSTTMGPLPPFAVAQGAQLLIRPVDKPINTTLICNVTNALGARQAELTVQVKEGPPSEHSGMSRNAIIFLVLGILVFLILLGIGIYFYWSKCSREVLWHCHLCPSSTEHASASANGHVSYSAVSRENSSSQDPQTEGTR
# notes: Bait, transiently expressed in HEK-293T cells and immunoprecipitated from lysates with anti-FLAG agarose; also called Poliovirus receptor; NECL-5
# Target: T1, pYAP (human, UniProt P46937, phosphorylated; site not stated in Example 13 (detected with phospho-YAP1 antibody #4911, Cell Signaling Technology; the anti-pYAP antibody of Examples 5 and 7 is to Ser127))
# T1 construct: full length, endogenous; also called phospho-YAP; phospho-YAP1
# Assay: co-immunoprecipitation: anti-FLAG IP from lysate of transiently transfected HEK-293T cells, Western blot with anti-phospho-YAP1
# Description: To validate these protein complexes, immunoprecipitates (see method described above) were prepared from HEK-293T cells transiently transfected with FLAG-tagged full-length CADM1, CADM3, PVR, PVRL1, and PVRL3, with CADM3-CD4TM-GFP and LGR5-CD4TM-GFP constructs as internal negative controls. Total cell lysates and the immunoprecipitate eluates were run on 4-12% Tris-Glycine Midi Gels (Life Technologies/Invitrogen, Grand Island, N.Y.) and transferred by iBlot onto PVDF membranes (Life Technologies/Invitrogen).
# T1 sequence (P46937 whole entry): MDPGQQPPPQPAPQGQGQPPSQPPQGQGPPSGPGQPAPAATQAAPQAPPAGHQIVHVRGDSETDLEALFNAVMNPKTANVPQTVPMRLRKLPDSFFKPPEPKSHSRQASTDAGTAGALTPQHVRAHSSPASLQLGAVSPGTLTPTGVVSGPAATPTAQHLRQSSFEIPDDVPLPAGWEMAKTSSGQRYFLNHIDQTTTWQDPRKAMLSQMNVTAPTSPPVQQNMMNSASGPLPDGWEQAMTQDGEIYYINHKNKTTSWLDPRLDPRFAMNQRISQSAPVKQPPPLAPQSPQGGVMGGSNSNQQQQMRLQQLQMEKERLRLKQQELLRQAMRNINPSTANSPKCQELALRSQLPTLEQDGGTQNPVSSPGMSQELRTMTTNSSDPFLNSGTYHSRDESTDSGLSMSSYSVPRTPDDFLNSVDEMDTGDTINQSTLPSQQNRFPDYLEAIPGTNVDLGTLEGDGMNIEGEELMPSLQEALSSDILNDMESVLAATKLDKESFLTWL
binder,measurement,value
B1,binding result,no binding

# Source: patent US20140056890A1 (ONCEMED PHARMACEUTICALS, published 2014)
